Test results published in the supplement of paper PMC10567573.

B1: FOXJ1 (parent)
chain: SAIYKWITDNFCYFRHADPTWQNS
B2: ADD1 (parent)
chain: FASDGDSGTCSPLRHSFQKQQREK

Variants of: B1
Experiment: protein stability index of a GFP-peptide fusion (GPS, HEK-293T) (PSI 1-6); higher = more stable
Conditions: c terminus: a fixed tail appended
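Also: lentivirally expressed fusions sorted by FACS into six bins by GFP to DsRed ratio, PSI derived from sequencing read proportions per bin multiplied by bin number.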

First: SAIYKWITDNFCYFRHADPTWQHS [N23H]
Second: SAIYKWITDNFCYFRHADPTWQKS [N23K]
The protein stability index of the first is higher: 4.01 for the first, 2.13 for the second.

First: SAIYKWITDNFCYFRHADPTWQLS [N23L]
Second: SAIYKWITDNFCYFRHADPTWQMS [N23M]
The protein stability index of the first is lower: 2.46 for the first, 2.75 for the second.

Compared with SAIYKWITDNFCYFRHADPTWQPS [N23P], SAIYKWITDNFCYFRHADPTWQQS [N23Q] is higher in protein stability index: 3.02 for the first, 3.42 for the second.

Compared with SAIYKWITDNFCYFRHADPTWQRS [N23R], SAIYKWITDNFCYFRHADPTWQSS [N23S] is lower in protein stability index: 3.24 for the first, 2.62 for the second.

First: SAIYKWITDNFCYFRHADPTWQTS [N23T]
Second: SAIYKWITDNFCYFRHADPTWQVS [N23V]
The protein stability index of the first is higher: 3.31 for the first, 2.39 for the second.

First: SAIYKWITDNFCYFRHADPTWQWS [N23W]
Second: SAIYKWITDNFCYFRHADPTWQYS [N23Y]
The protein stability index of the first is lower: 3.47 for the first, 3.52 for the second.

Compared with SAIYKWITDNFCYFRHADPTWQND [S24D], SAIYKWITDNFCYFRHADPTWQNE [S24E] is lower in protein stability index: 4.48 for the first, 2.97 for the second.

Going from SAIYKWITDNFCYFRHADPTWQNF [S24F] to SAIYKWITDNFCYFRHADPTWQNH [S24H], the protein stability index falls from 3.32 to 2.34.

Going from SAIYKWITDNFCYFRHADPTWQNK [S24K] to SAIYKWITDNFCYFRHADPTWQNM [S24M], the protein stability index rises from 2.17 to 2.55.

Going from SAIYKWITDNFCYFRHADPTWQNN [S24N] to SAIYKWITDNFCYFRHADPTWQNP [S24P], the protein stability index rises from 3.76 to 3.85.

First: SAIYKWITDNFCYFRHADPTWQNR [S24R]
Second: SAIYKWITDNFCYFRHADPTWQNT [S24T]
The protein stability index of the first is lower: 2.43 for the first, 2.96 for the second.

For SAIYKWITDNFCYFRHADPTWQNW [S24W], the protein stability index was 2.37.

Variants of: B2
Experiment: as above
Conditions: c terminus: a fixed tail appended

Compared with CASDGDSGTCSPLRHSFQKQQREK [F1C], DASDGDSGTCSPLRHSFQKQQREK [F1D] is higher in protein stability index: 4.17 for the first, 4.91 for the second.

First: EASDGDSGTCSPLRHSFQKQQREK [F1E]
Second: GASDGDSGTCSPLRHSFQKQQREK [F1G]
The protein stability index of the first is higher: 5.62 for the first, 4.99 for the second.

First: HASDGDSGTCSPLRHSFQKQQREK [F1H]
Second: IASDGDSGTCSPLRHSFQKQQREK [F1I]
The protein stability index of the first is lower: 5.18 for the first, 5.29 for the second.

Compared with KASDGDSGTCSPLRHSFQKQQREK [F1K], MASDGDSGTCSPLRHSFQKQQREK [F1M] is higher in protein stability index: 4.22 for the first, 5.2 for the second.

Compared with NASDGDSGTCSPLRHSFQKQQREK [F1N], PASDGDSGTCSPLRHSFQKQQREK [F1P] is higher in protein stability index: 5.19 for the first, 5.76 for the second.

Going from QASDGDSGTCSPLRHSFQKQQREK [F1Q] to RASDGDSGTCSPLRHSFQKQQREK [F1R], the protein stability index rises from 4.57 to 5.07.

Going from SASDGDSGTCSPLRHSFQKQQREK [F1S] to TASDGDSGTCSPLRHSFQKQQREK [F1T], the protein stability index rises from 5.12 to 5.55.

Going from WASDGDSGTCSPLRHSFQKQQREK [F1W] to YASDGDSGTCSPLRHSFQKQQREK [F1Y], the protein stability index falls from 5.13 to 4.07.

First: FCSDGDSGTCSPLRHSFQKQQREK [A2C]
Second: FDSDGDSGTCSPLRHSFQKQQREK [A2D]
The protein stability index of the first is lower: 3.54 for the first, 5.17 for the second.

Compared with FESDGDSGTCSPLRHSFQKQQREK [A2E], FFSDGDSGTCSPLRHSFQKQQREK [A2F] is lower in protein stability index: 5.18 for the first, 4.6 for the second.

Compared with FGSDGDSGTCSPLRHSFQKQQREK [A2G], FHSDGDSGTCSPLRHSFQKQQREK [A2H] is lower in protein stability index: 4.11 for the first, 2.76 for the second.

First: FISDGDSGTCSPLRHSFQKQQREK [A2I]
Second: FKSDGDSGTCSPLRHSFQKQQREK [A2K]
The protein stability index of the first is lower: 2.84 for the first, 4.66 for the second.

Compared with FLSDGDSGTCSPLRHSFQKQQREK [A2L], FMSDGDSGTCSPLRHSFQKQQREK [A2M] is higher in protein stability index: 3.7 for the first, 3.86 for the second.

Going from FNSDGDSGTCSPLRHSFQKQQREK [A2N] to FPSDGDSGTCSPLRHSFQKQQREK [A2P], the protein stability index falls from 4.79 to 4.27.

Going from FQSDGDSGTCSPLRHSFQKQQREK [A2Q] to FRSDGDSGTCSPLRHSFQKQQREK [A2R], the protein stability index rises from 3.61 to 4.38.

First: FSSDGDSGTCSPLRHSFQKQQREK [A2S]
Second: FTSDGDSGTCSPLRHSFQKQQREK [A2T]
The protein stability index of the first is higher: 4.47 for the first, 4.39 for the second.

First: FVSDGDSGTCSPLRHSFQKQQREK [A2V]
Second: FWSDGDSGTCSPLRHSFQKQQREK [A2W]
The protein stability index of the first is lower: 3.07 for the first, 4.27 for the second.

Going from FYSDGDSGTCSPLRHSFQKQQREK [A2Y] to FAADGDSGTCSPLRHSFQKQQREK [S3A], the protein stability index falls from 4.33 to 3.58.

First: FACDGDSGTCSPLRHSFQKQQREK [S3C]
Second: FADDGDSGTCSPLRHSFQKQQREK [S3D]
The protein stability index of the first is lower: 3.02 for the first, 4.03 for the second.

Going from FAFDGDSGTCSPLRHSFQKQQREK [S3F] to FAGDGDSGTCSPLRHSFQKQQREK [S3G], the protein stability index rises from 1.92 to 3.98.

Going from FAHDGDSGTCSPLRHSFQKQQREK [S3H] to FAIDGDSGTCSPLRHSFQKQQREK [S3I], the protein stability index falls from 4.05 to 3.88.

Going from FAKDGDSGTCSPLRHSFQKQQREK [S3K] to FALDGDSGTCSPLRHSFQKQQREK [S3L], the protein stability index falls from 3.75 to 3.51.

Compared with FAMDGDSGTCSPLRHSFQKQQREK [S3M], FANDGDSGTCSPLRHSFQKQQREK [S3N] is lower in protein stability index: 4.33 for the first, 3.72 for the second.

Compared with FAPDGDSGTCSPLRHSFQKQQREK [S3P], FAQDGDSGTCSPLRHSFQKQQREK [S3Q] is higher in protein stability index: 2.37 for the first, 4.5 for the second.

First: FARDGDSGTCSPLRHSFQKQQREK [S3R]
Second: FATDGDSGTCSPLRHSFQKQQREK [S3T]
The protein stability index of the first is lower: 3.25 for the first, 3.99 for the second.

Going from FAVDGDSGTCSPLRHSFQKQQREK [S3V] to FAWDGDSGTCSPLRHSFQKQQREK [S3W], the protein stability index falls from 4.09 to 2.72.

First: FAYDGDSGTCSPLRHSFQKQQREK [S3Y]
Second: FASAGDSGTCSPLRHSFQKQQREK [D4A]
The protein stability index of the first is lower: 1.93 for the first, 2.14 for the second.

First: FASCGDSGTCSPLRHSFQKQQREK [D4C]
Second: FASEGDSGTCSPLRHSFQKQQREK [D4E]
The protein stability index of the first is lower: 2.72 for the first, 4.37 for the second.

Compared with FASFGDSGTCSPLRHSFQKQQREK [D4F], FASGGDSGTCSPLRHSFQKQQREK [D4G] is lower in protein stability index: 2.41 for the first, 2.07 for the second.

First: FASHGDSGTCSPLRHSFQKQQREK [D4H]
Second: FASIGDSGTCSPLRHSFQKQQREK [D4I]
The protein stability index of the first is higher: 3.08 for the first, 2.54 for the second.

Compared with FASKGDSGTCSPLRHSFQKQQREK [D4K], FASLGDSGTCSPLRHSFQKQQREK [D4L] is higher in protein stability index: 2.51 for the first, 3.48 for the second.

Going from FASMGDSGTCSPLRHSFQKQQREK [D4M] to FASNGDSGTCSPLRHSFQKQQREK [D4N], the protein stability index rises from 2.54 to 2.99.

Going from FASPGDSGTCSPLRHSFQKQQREK [D4P] to FASQGDSGTCSPLRHSFQKQQREK [D4Q], the protein stability index falls from 4.26 to 3.14.

Compared with FASRGDSGTCSPLRHSFQKQQREK [D4R], FASTGDSGTCSPLRHSFQKQQREK [D4T] is lower in protein stability index: 2.81 for the first, 2.69 for the second.

Going from FASVGDSGTCSPLRHSFQKQQREK [D4V] to FASYGDSGTCSPLRHSFQKQQREK [D4Y], the protein stability index rises from 2.44 to 2.66.

For FASDADSGTCSPLRHSFQKQQREK [G5A], the protein stability index was 4.17.
